The text below walks through data of publication PMC3796545, “Protein-Protein Interactions as a Strategy towards Protein-Specific Drug Design: The Example of Ataxin-1” (PLoS ONE, 2013).

Peptide text beside a SMILES is read from it.

In general, Kd refers to the equilibrium constant for the complex coming apart. As a reminder, the stoichiometry N is a count of units in the complex or per binding partner.

One assay concerns the target T1, ATX1 AXH (residues A567-K689 of human ATX1) (human).
T1 chain: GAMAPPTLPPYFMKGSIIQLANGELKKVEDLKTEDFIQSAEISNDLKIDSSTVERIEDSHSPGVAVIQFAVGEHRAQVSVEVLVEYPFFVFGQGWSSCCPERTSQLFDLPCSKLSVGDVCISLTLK
The experiment in a line: ITC.
Settings: not given
In turn, VFPWHSAVPFLAPSQ [L-CICp with L40 mutated to alanine] had a dissociation constant Kd of 500 nM. Still for that read-out and setting: with VFPWHSLVPFLAASQ [L-CICp with P46 mutated to alanine] the figure was 20 nM. Same read-out and setting: next, VFPWHSLVAFLAPSQ [L-CICp with P42 mutated to alanine]: 40 nM; AFPWHSLVPFLAPSQ [L-CICp with V34 mutated to alanine]: 20 nM.

On to VFPWHALVPFLAPSQ [L-CICp with S39 mutated to alanine], for which binding was characterised by a dissociation constant (Kd) of 10 nM. The same measure, in the same setting: next, VAPWHSLVPFLAPSQ [L-CICp with F35 mutated to alanine]: 30 nM; VFPWHSLAPFLAPSQ [L-CICp with V41 mutated to alanine]: 70 nM; VFPAHSLVPFLAPSQ [L-CICp with W37 mutated to alanine]: 2600 nM.

As to VFPWHSLVPFLAPSQ [L-CICp], the affinity, expressed as Kd, was 30 nM.

As for VFPWHSLVPALAPSQ [L-CICp with F43 mutated to alanine], the dissociation constant (Kd) came out at 60 nM. As to VFAWHSLVPFLAPSQ [L-CICp with P36 mutated to alanine], the dissociation constant (Kd) turned out to be 40 nM. On the same count and under the same terms, next, VFPWHSLVPFAAPSQ [L-CICp with L44 mutated to alanine]: 50 nM. The same measure, in the same setting: next, VFPWASLVPFLAPSQ [L-CICp with H38 mutated to alanine]: 50 nM.

Another assay deals with T2, ATX1 AXH (residues A567–K689 of human ATX1) (Homo sapiens, UniProt P54253).
T2 construct: Recombinant ATX1 AXH (residues A567–K689 of human ATX1); His6-GST (N, cleaved yes); made in house; host or cells: E. coli BL21(DE3)pLysS
T2 sequence (P54253 566-688 limits assumed): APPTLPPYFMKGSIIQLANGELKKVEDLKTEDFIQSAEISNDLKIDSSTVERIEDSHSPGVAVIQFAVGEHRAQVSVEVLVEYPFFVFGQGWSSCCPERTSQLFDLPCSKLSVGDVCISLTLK
The experiment in a line: ITC binding of CIC peptides to ATX1 AXH. Conditions: 25°C, 50 mM Tris-HCl pH 7, 50 mM NaCl, 2 mM TCEP, 0.041 mM AXH in cell, 0.410 mM peptide in syringe, averages of three measurements, read-out: dissociation constant (Kd). As to the method:
Binding affinities of AXH with CIC ligands were measured at 25°C by a MicroCal Omega VP-ITC (MicroCal Inc., Northampton, USA). Both protein and peptides buffers were 50 mM Tris-HCl pH 7, 50 mM NaCl, 2 mM TCEP. Solutions of 0.041 mM AXH in the cell were titrated by injections of a total of 283 µl of 0.410 mM peptide in the syringe in 21 aliquots. Data were processed with the software MicroCal Origin version 5.0 provided by the manufacturer. All dissociation constants were averages of three measurements.
As for `CC(C)C[C@H](NC(=O)[C@H](Cc1ccccc1)NC(=O)[C@@H]1CCCN1C(=O)[C@@H](NC(=O)[C@H](CC(C)C)NC(=O)[C@H](CO)NC(=O)[C@H](Cc1c[nH]cn1)NC(=O)[C@H](Cc1c[nH]c2ccccc12)NC(=O)[C@@H]1CCCN1C(=O)[C@H](Cc1ccccc1)NC(=O)[C@@H](N)C(C)C)C(C)C)C(=O)N[C@@H](C)C(=O)N1CCC[C@H]1C(=O)N[C@@H](CO)C(=O)N[C@@H](CCC(N)=O)C(=O)O` [L-CICp] (H-VFPWHSLVPFLAPSQ-OH), the Kd amounted to 30 nM.

In the case of `CC(C)C[C@H](NC(=O)[C@H](Cc1ccccc1)NC(=O)[C@@H]1CCCN1C(=O)[C@@H](NC(=O)[C@H](CC(C)C)NC(=O)[C@H](CO)NC(=O)[C@H](Cc1c[nH]cn1)NC(=O)[C@H](Cc1c[nH]c2ccccc12)NC(=O)[C@H](C)NC(=O)[C@H](Cc1ccccc1)NC(=O)[C@@H](N)C(C)C)C(C)C)C(=O)N[C@@H](C)C(=O)N1CCC[C@H]1C(=O)N[C@@H](CO)C(=O)N[C@@H](CCC(N)=O)C(=O)O` [P36] (H-VFAWHSLVPFLAPSQ-OH), the Kd amounted to 40 nM. For `CC(C)C[C@H](NC(=O)[C@H](Cc1ccccc1)NC(=O)[C@H](C)NC(=O)[C@@H](NC(=O)[C@H](CC(C)C)NC(=O)[C@H](CO)NC(=O)[C@H](Cc1c[nH]cn1)NC(=O)[C@H](Cc1c[nH]c2ccccc12)NC(=O)[C@@H]1CCCN1C(=O)[C@H](Cc1ccccc1)NC(=O)[C@@H](N)C(C)C)C(C)C)C(=O)N[C@@H](C)C(=O)N1CCC[C@H]1C(=O)N[C@@H](CO)C(=O)N[C@@H](CCC(N)=O)C(=O)O` [P42] (H-VFPWHSLVAFLAPSQ-OH), the Kd is 40 nM. The same measure, in the same setting: next, `CC(C)C[C@H](NC(=O)[C@H](Cc1ccccc1)NC(=O)[C@@H]1CCCN1C(=O)[C@@H](NC(=O)[C@H](CC(C)C)NC(=O)[C@H](CO)NC(=O)[C@H](Cc1c[nH]cn1)NC(=O)[C@H](Cc1c[nH]c2ccccc12)NC(=O)[C@@H]1CCCN1C(=O)[C@H](Cc1ccccc1)NC(=O)[C@@H](N)C(C)C)C(C)C)C(=O)N[C@@H](C)C(=O)N[C@@H](C)C(=O)N[C@@H](CO)C(=O)N[C@@H](CCC(N)=O)C(=O)O` [P46] (H-VFPWHSLVPFLAASQ-OH): 20 nM. Same read-out and setting: with `CC(C)C[C@H](NC(=O)[C@H](C)NC(=O)[C@H](Cc1c[nH]cn1)NC(=O)[C@H](Cc1c[nH]c2ccccc12)NC(=O)[C@@H]1CCCN1C(=O)[C@H](Cc1ccccc1)NC(=O)[C@@H](N)C(C)C)C(=O)N[C@H](C(=O)N1CCC[C@H]1C(=O)N[C@@H](Cc1ccccc1)C(=O)N[C@@H](CC(C)C)C(=O)N[C@@H](C)C(=O)N1CCC[C@H]1C(=O)N[C@@H](CO)C(=O)N[C@@H](CCC(N)=O)C(=O)O)C(C)C` [S39] (H-VFPWHALVPFLAPSQ-OH) the figure was 10 nM; with `CC(C)C[C@H](NC(=O)[C@H](Cc1ccccc1)NC(=O)[C@@H]1CCCN1C(=O)[C@@H](NC(=O)[C@H](CC(C)C)NC(=O)[C@H](CO)NC(=O)[C@H](Cc1c[nH]cn1)NC(=O)[C@H](Cc1c[nH]c2ccccc12)NC(=O)[C@@H]1CCCN1C(=O)[C@H](Cc1ccccc1)NC(=O)[C@H](C)N)C(C)C)C(=O)N[C@@H](C)C(=O)N1CCC[C@H]1C(=O)N[C@@H](CO)C(=O)N[C@@H](CCC(N)=O)C(=O)O` [V34] (H-AFPWHSLVPFLAPSQ-OH), 20 nM; with `CC(C)C[C@H](NC(=O)[C@H](Cc1ccccc1)NC(=O)[C@@H]1CCCN1C(=O)[C@H](C)NC(=O)[C@H](CC(C)C)NC(=O)[C@H](CO)NC(=O)[C@H](Cc1c[nH]cn1)NC(=O)[C@H](Cc1c[nH]c2ccccc12)NC(=O)[C@@H]1CCCN1C(=O)[C@H](Cc1ccccc1)NC(=O)[C@@H](N)C(C)C)C(=O)N[C@@H](C)C(=O)N1CCC[C@H]1C(=O)N[C@@H](CO)C(=O)N[C@@H](CCC(N)=O)C(=O)O` [V41] (H-VFPWHSLAPFLAPSQ-OH), 70 nM. Still for that read-out and setting: with `CC(C)C[C@H](NC(=O)[C@H](Cc1ccccc1)NC(=O)[C@@H]1CCCN1C(=O)[C@@H](NC(=O)[C@H](CC(C)C)NC(=O)[C@H](CO)NC(=O)[C@H](Cc1c[nH]cn1)NC(=O)[C@H](C)NC(=O)[C@@H]1CCCN1C(=O)[C@H](Cc1ccccc1)NC(=O)[C@@H](N)C(C)C)C(C)C)C(=O)N[C@@H](C)C(=O)N1CCC[C@H]1C(=O)N[C@@H](CO)C(=O)N[C@@H](CCC(N)=O)C(=O)O` [W37] (H-VFPAHSLVPFLAPSQ-OH) the figure was 2600 nM.

The same assay, now with this note: 25°C, 50 mM Tris-HCl pH 7, 50 mM NaCl, 2 mM TCEP, averages of three measurements, read-out: dissociation constant (Kd).
Turning to `CC(C)C[C@H](NC(=O)[C@H](Cc1ccccc1)NC(=O)[C@@H]1CCCN1C(=O)[C@@H](NC(=O)[C@H](CC(C)C)NC(=O)[C@H](CO)NC(=O)[C@H](Cc1c[nH]cn1)NC(=O)[C@H](Cc1c[nH]c2ccccc12)NC(=O)[C@@H]1CCCN1C(=O)[C@H](Cc1ccccc1)NC(=O)[C@@H](N)C(C)C)C(C)C)C(=O)N[C@@H](C)C(=O)N1CCC[C@H]1C(=O)N[C@@H](CO)C(=O)N[C@@H](CCC(N)=O)C(=O)O` [L-CICp] (H-VFPWHSLVPFLAPSQ-OH), the dissociation constant (Kd) was approximately 33 nM.

Another assay addresses ATX1 AXH (residues A567-K689 of human ATX1) (human). The experiment in a line: ITC; 0.041 mM AXH in the cell, 0.410 mM peptide in the syringe, 21 aliquots; 25°C; 50 mM Tris-HCl pH 7, 50 mM NaCl, 2 mM TCEP; single-site model; averages of three measurements.
Settings: not given
Molecule VFPWHSAVPFLAPSQ [L-CICp with L40 mutated to alanine] came in with a fold change of Kd against wild-type L-CICp of 10 fold. Regarding PWHSLVPFLAPSQ [CICp], the Kd was found to be 8 µM.

In turn, VFPAHSLVPFLAPSQ [L-CICp with W37 mutated to alanine] displayed a fold change of Kd against wild-type L-CICp of 100 fold. The molecule VFPWHSLVPFLAPSQ [L-CICp] showed a dissociation constant Kd of 0.033 µM.

The next assay shares this target. Kind of assay: NMR relaxation (T1, T2, rotational correlation time); free AXH, before addition of the peptide; 27°C, 600 MHz.
Settings: not given
In the case of “ATX1 AXH (residues A567-K689 of human ATX1) (domain or fragment)”, the stoichiometry N turned out to be 2.
